{"source": "paper PMC6628420", "molecular_target": "CD11b, cellular receptor of LukAB, on PMNs (HL-60 cells differentiated with DMSO) (human (endogenous in HL-60)) (UniProt P11215)"}
{"substance": "LukAB heterodimer LukA wild type / LukB R23E (complex)", "values": [{"measurement": "reversal of the toxicity of 0.42 nM LukABWT on PMNs by the mutant (0.4 pM-13 nM), set up as competition with LukABWT for receptor binding; mutant/WT molar ratio at 50% reversal (mutant/WT molar ratio)", "result": 0.64}]}
{"substance": "LukAB heterodimer LukA D39A / LukB R23E (complex)", "values": [{"measurement": "reversal of the toxicity of 0.42 nM LukABWT on PMNs by the mutant (0.4 pM-13 nM), set up as competition with LukABWT for receptor binding; mutant/WT molar ratio at 50% reversal (mutant/WT molar ratio)", "result": 0.17}]}
{"substance": "LukAB heterodimer LukA wild type / LukB with the N-terminal 30 residues of HlgB (complex)", "values": [{"measurement": "reversal of the toxicity of 0.42 nM LukABWT on PMNs by the mutant (0.4 pM-13 nM), set up as competition with LukABWT for receptor binding; mutant/WT molar ratio at 50% reversal (mutant/WT molar ratio)", "result": 0.18}]}
{"substance": "LukAB heterodimer LukA D39R / LukB R23E (complex)", "values": [{"measurement": "reversal of the toxicity of 0.42 nM LukABWT on PMNs by the mutant (0.4 pM-13 nM), set up as competition with LukABWT for receptor binding; mutant/WT molar ratio at 50% reversal (mutant/WT molar ratio)", "result": "> 30"}]}
{"substance": "LukAB heterodimer LukA wild type / LukB K12A/K19A/R23A (complex)", "values": [{"measurement": "reversal of the toxicity of 0.42 nM LukABWT on PMNs by the mutant (0.4 pM-13 nM), set up as competition with LukABWT for receptor binding; mutant/WT molar ratio at 50% reversal (mutant/WT molar ratio)", "result": "> 30"}]}
